Reference: patent US9193963B2, “Mutant endoglucanase” (Toray Industries, Inc., priority 2011, dated 2015)
Numbering of substitutions follows the chain as printed.

Tests used:
[1] = Inhibition experiment with ferulic acid: degradation of phosphoric acid swollen cellulose; format: biochemical; conditions: enzyme 0.5 μM, 1 hour, 50° C., parent at 0 mM = 100%
Protocol: This substance was diluted using buffer and water to obtain a 2 wt % mixture so that the final concentration of sodium acetate was 50 mM (pH 5.2). This was designated as phosphoric acid swollen cellulose and used for the following examples.
The activity of the wild-type and the mutant endoglucanases to degrade phosphoric acid swollen cellulose was measured in the presence of ferulic acid. 1% phosphoric acid swollen cellulose/50 mM acetate buffer (pH 5.2) was used as a substrate. Ferulic acid (Sigma Aldrich) was added at final concentrations of 0, 5, 10, and 15 mM. The enzymes prepared in Reference Example 1 and Example 2 were each added at a final concentration of 0.5 μM, followed by 1 hour of enzymatic reaction at 50° C.

[2] = Saccharification of lignocellulose 2 with Trichoderma reesei culture solution and endoglucanase; format: biochemical, Rice straw; conditions: Lignocellulose 2, 24 hours; cellulase 1.0 mg/mL + endoglucanase 0.1 mg/mL + β-glucosidase (Novozyme 188) 0.01 mg/mL
Protocol: (§1) Rice straw was used as cellulose. Cellulose was immersed in a 1% aqueous sulfuric acid solution, and then autoclaved for 30 minutes at 150° C. (Nitto Koatsu Co. Ltd.). After treatment, the resultant was subjected to solid-liquid separation into an aqueous sulfuric acid solution (hereinafter, referred to as “dilute-sulfuric-acid-treated solution”) and cellulose treated with sulfuric acid. Next, the cellulose treated with sulfuric acid was mixed and agitated with the dilute-sulfuric-acid-treated solution so that the solid content concentration was 10 wt %. Then the mixture was adjusted to around pH 5 using sodium hydroxide. The resultant was used as lignocellulose 2 for the following examples.
(§2) The changes in the amount of glucose generated when the enzyme composition had been caused to act on lignocellulose substrates were compared. The substrates were prepared by suspending 5 wt % lignocelluloses (1 to 3) (prepared in Reference Example 3) in 50 mM acetate buffer (pH5.2). Reactions were performed at 50° C. for 24 hours. The concentrations of the generated glucose were measured after adequate sampling. As a filamentous bacterium-derived cellulase mixture, commercially available Trichoderma reesei-derived cellulase (Celluclast, Sigma) was used. As endoglucanases, the mutant endoglucanases prepared in Example 2 and the wild-type endoglucanases prepared in Reference Example 1 were separately used. The following quantities of enzymes were added: 1.0 mg/mL cellulase, and 0.1 mg/mL endoglucanase (in an amount one tenth that of the cellulase).
(§3) Lignocelluloses (1-3) prepared in Reference Example 3 were used as substrates. The Trichoderma reesei culture solution prepared in Reference Example 4 was used as a filamentous bacterium-derived cellulase mixture. Lignocelluloses (1-3) were hydrolyzed in a manner similar to that in Example 7, except for the quantities of the enzymes added: cellulase (1.0 mg/mL); endoglucanase (0.1 mg/mL (in an amount one tenth that of the cellulase); and β-glucosidase (Novozyme 188) (0.01 mg/mL (in an amount one hundredth that of the cellulase).

[3] = Saccharification of lignocellulose 2 with Celluclast and endoglucanase; format: biochemical, Rice straw; conditions: 5 wt % Lignocellulose 2, pH 5.2, 50° C., 24 hours; 1.0 mg/mL cellulase + 0.1 mg/mL endoglucanase
Protocol: as §1, §2

[4] = Saccharification of lignocellulose 3 with Celluclast and endoglucanase; format: biochemical, Rice straw; conditions: 5 wt % Lignocellulose 3, pH 5.2, 50° C., 24 hours; 1.0 mg/mL cellulase + 0.1 mg/mL endoglucanase
Protocol: (§4) Rice straw was used as cellulose. The cellulose was immersed in water, and then autoclaved with agitation at 180° C. for 20 minutes (Nitto Koatsu Co. Ltd.). Pressure at this time was 10 MPa. After treatment, a solution component (hereinafter, referred to as “hydrothermally treated solution”) and the treated biomass component were subjected to solid-liquid separation by centrifugation (3000 G). The thus treated biomass component was used as lignocellulose 3 for the following examples.
as §2

[5] = Activity to degrade phosphoric acid swollen cellulose; format: biochemical; conditions: 1% phosphoric acid swollen cellulose, pH 5.2, enzyme 0.5 μM, 1 hour, 50° C.; glucose generated by each parent endoglucanase = 100%
Protocol: The term “identity” refers to the percentage of amino acid residues identical to and amino acid residues analogous to the other amino acid residues in all the amino acid residues overlapped when an optimum alignment is performed by introducing gaps or no gaps into two amino acid sequences and then aligning the two amino acid sequences. Such an identity can be found using a method known by persons skilled in the art, sequence analysis software, and the like (a known algorithm such as BLAST or FASTA). The term “endoglucanase activity” is as defined above and can be determined by adding an enzyme solution to a substrate solution of phosphoric acid swollen cellulose that has been dissolved in 50 mM acetic acid-sodium acetate buffer (pH 5.2) or the like, performing 1 hour of reaction at 30° C. to 85° C., stopping the reaction by changing the pH if necessary, and then determining the concentration of glucose in the reaction solution using a glucose determination kit, for example.
The mutants obtained in Comparative Example 1 were compared in terms of activity by a technique similar to that in Example 3. The concentration (g/L) of glucose generated by each parent endoglucanase under the above reaction conditions was determined to be 100%.

[6] = Saccharification of lignocellulose 1 with Trichoderma reesei culture solution and endoglucanase; format: biochemical, Rice straw; conditions: Lignocellulose 1, 24 hours; cellulase 1.0 mg/mL + endoglucanase 0.1 mg/mL + β-glucosidase (Novozyme 188) 0.01 mg/mL
Protocol: (§5) Rice straw was used as cellulose. The cellulose was added to a small reactor (Taiatsu Techno Corporation, TVS-N2 (30 ml)), and then cooled with liquid nitrogen. An ammonia gas was fed to the reactor, thereby completely immersing the sample in the liquid ammonia. The reactor was closed using its lid, and then left to stand at room temperature for 15 minutes. Subsequently, treatment was performed for 1 hour in an oil bath at 150° C. After treatment, the reactor was removed from the oil bath, an ammonia gas leak was immediately performed within a draft chamber. The reactor was vacuumed using a vacuum pump to 10 Pa for drying. The resultant was used as lignocellulose 1 in the following examples.
as §2, §3

[7] = Saccharification of lignocellulose 1 with Celluclast and endoglucanase; format: biochemical, Rice straw; conditions: 5 wt % Lignocellulose 1, pH 5.2, 50° C., 24 hours; 1.0 mg/mL cellulase + 0.1 mg/mL endoglucanase
Protocol: as §5, §2

[8] = Saccharification of lignocellulose 3 with Trichoderma reesei culture solution and endoglucanase; format: biochemical, Rice straw; conditions: Lignocellulose 3, 24 hours; cellulase 1.0 mg/mL + endoglucanase 0.1 mg/mL + β-glucosidase (Novozyme 188) 0.01 mg/mL
Protocol: as §4, §2, §3

[9] = Inhibition experiment with vanillin: degradation of phosphoric acid swollen cellulose; format: biochemical; conditions: enzyme 0.5 μM, 1 hour, 50° C., parent at 0 mM = 100%

B1: EGPa Wild-type: Pyrococcus abyssi-derived endoglucanase, SEQ ID NO: 25, parent endoglucanase (protein)
chain: MEIKLFCVFIVFIILFSPFVIALSYPDVNYTAENGIIFVQNVTTGEKKPLYLHGVSWFGFELKDHVVYGLDKRNWKDILKDVKRLGFNAIRLPFCSESIRPDTRPSPERINYELNPDLKNLTSLEIMEKIIEYANSIGLYILLDYHRIGCEEIEPLWYTENYSEEQYIKDWIFLAKRFGKYPNVIGADIKNEPHGEAGWGTGDERDFRLFAEKVGREILKVAPHWLIFVEGTQYTHVPNIDEIIEKKGWWTFWGENLMGVKDYPVRLPRGKVVYSPHVYGPSVYMMDYFKSPDFPNNMPIIWETHFGYLTDLNYTLVIGEWGGNYEGLDKVWQDAFVKWLIKKKIYNFFYWCLNPESGDTGGIFLDDWKTVNWEKMRVIYRLIKAANPEFEEPLYIILKTNATTSILGVGERIRIYWYTNGKVIDSNFAHSSEGEMNITVTKSMTLYIIVKKGNQTLRKELKLYVIGGNYGSNISTTQLVTPKKGGERISTSLKLAISLLFILLFVWYLLREKH
modifications: Pyrococcus abyssi EGPa
Relative activity to degrade phosphoric acid swollen cellulose ([1]; ferulic acid 0 mM): 100% | Relative activity to degrade phosphoric acid swollen cellulose ([1]; ferulic acid 5 mM): 60% | Relative activity to degrade phosphoric acid swollen cellulose ([1]; ferulic acid 10 mM): 50% | Relative activity to degrade phosphoric acid swollen cellulose ([1]; ferulic acid 15 mM): 50% | Concentration of glucose generated, Culture solution + Wild-type [2]: 9 g/L | Concentration of glucose generated, Celluclast + Wild-type [3]: 12 g/L | Concentration of glucose generated, Celluclast + Wild-type [4]: 11 g/L | Relative activity [5]: 100% | Concentration of glucose generated, Culture solution + Wild-type [6]: 9 g/L | Concentration of glucose generated, Celluclast + Wild-type [7]: 12 g/L | Concentration of glucose generated, Culture solution + Wild-type [8]: 8 g/L | Relative activity to degrade phosphoric acid swollen cellulose ([9]; vanillin 0 mM): 100% | Relative activity to degrade phosphoric acid swollen cellulose ([9]; vanillin 5 mM): 40% | Relative activity to degrade phosphoric acid swollen cellulose ([9]; vanillin 10 mM): 40% | Relative activity to degrade phosphoric acid swollen cellulose ([9]; vanillin 15 mM): 40%

B2: EGPa Mutant: mutant EGPa, SEQ ID NO: 26; residue corresponding to 273rd tryptophan substituted with alanine (protein)
chain: B1 chain with W253A
modifications: Pyrococcus abyssi EGPa W253A
notes: residue corresponding to 273rd tryptophan substituted with alanine
Relative activity to degrade phosphoric acid swollen cellulose ([1]; ferulic acid 0 mM): 100% | Relative activity to degrade phosphoric acid swollen cellulose ([1]; ferulic acid 5 mM): 95% | Relative activity to degrade phosphoric acid swollen cellulose ([1]; ferulic acid 10 mM): 90% | Relative activity to degrade phosphoric acid swollen cellulose ([1]; ferulic acid 15 mM): 90% | Concentration of glucose generated, Culture solution + Mutant [2]: 13 g/L | Concentration of glucose generated, Celluclast + Mutant [3]: 16 g/L | Concentration of glucose generated, Celluclast + Mutant [4]: 15 g/L | Relative activity [5]: 100% | Concentration of glucose generated, Culture solution + Mutant [6]: 11 g/L | Concentration of glucose generated, Celluclast + Mutant [7]: 14 g/L | Concentration of glucose generated, Culture solution + Mutant [8]: 12 g/L | Relative activity to degrade phosphoric acid swollen cellulose ([9]; vanillin 0 mM): 100% | Relative activity to degrade phosphoric acid swollen cellulose ([9]; vanillin 5 mM): 90% | Relative activity to degrade phosphoric acid swollen cellulose ([9]; vanillin 10 mM): 90% | Relative activity to degrade phosphoric acid swollen cellulose ([9]; vanillin 15 mM): 90%

B3: EGAc Wild-type: Acidthermus cellulolyticus-derived endoglucanase, SEQ ID NO: 31, parent endoglucanase (protein)
chain: MPRALRRVPGSRVMLRVGVVVAVLALVAALANLAVPRPARAAGGGYWHTSGREILDANNVPVRIAGINWFGFETCNYVVHGLWSRDYRSMLDQIKSLGYNTIRLPYSDDILKPGTMPNSINFYQMNQDLQGLTSLQVMDKIVAYAGQIGLRIILDRHRPDCSGQSALWYTSSVSEATWISDLQALAQRYKGNPTVVGFDLHNEPHDPACWGCGDPSIDWRLAAERAGNAVLSVNPNLLIFVEGVQSYNGDSYWWGGNLQGAGQYPVVLNVPNRLVYSAHDYATSVYPQTWFSDPTFPNNMPGIWNKNWGYLFNQNIAPVWLGEFGTTLQSTTDQTWLKTLVQYLRPTAQYGADSFQWTFWSWNPDSGDTGGILKDDWQTVDTVKDGYLAPIKSSIFDPVGASASPSSQPSPSVSPSPSPSPSASRTPTPTPTPTASPTPTLTPTATPTPTASPTPSPTAASGARCTASYQVNSDWGNGFTVTVAVTNSGSVATKTWTVSWTFGGNQTITNSWNAAVTQNGQSVTARNMSYNNVIQPGQNTTFGFQASYTGSNAAPTVACAAS
modifications: Acidthermus cellulolyticus EGAc
Relative activity to degrade phosphoric acid swollen cellulose ([1]; ferulic acid 0 mM): 100% | Relative activity to degrade phosphoric acid swollen cellulose ([1]; ferulic acid 5 mM): 65% | Relative activity to degrade phosphoric acid swollen cellulose ([1]; ferulic acid 10 mM): 60% | Relative activity to degrade phosphoric acid swollen cellulose ([1]; ferulic acid 15 mM): 55% | Concentration of glucose generated, Culture solution + Wild-type [2]: 8 g/L | Concentration of glucose generated, Celluclast + Wild-type [3]: 11 g/L | Concentration of glucose generated, Celluclast + Wild-type [4]: 11 g/L | Relative activity [5]: 100% | Concentration of glucose generated, Culture solution + Wild-type [6]: 8 g/L | Concentration of glucose generated, Celluclast + Wild-type [7]: 11 g/L | Concentration of glucose generated, Culture solution + Wild-type [8]: 8 g/L | Relative activity to degrade phosphoric acid swollen cellulose ([9]; vanillin 0 mM): 100% | Relative activity to degrade phosphoric acid swollen cellulose ([9]; vanillin 5 mM): 50% | Relative activity to degrade phosphoric acid swollen cellulose ([9]; vanillin 10 mM): 45% | Relative activity to degrade phosphoric acid swollen cellulose ([9]; vanillin 15 mM): 40%

B4: EGAc Mutant: mutant EGAc, SEQ ID NO: 32; residue corresponding to 273rd tryptophan substituted with alanine (protein)
chain: B3 chain with W254A
modifications: Acidthermus cellulolyticus EGAc W254A
notes: as for B2
Relative activity to degrade phosphoric acid swollen cellulose ([1]; ferulic acid 0 mM): 100% | Relative activity to degrade phosphoric acid swollen cellulose ([1]; ferulic acid 5 mM): 100% | Relative activity to degrade phosphoric acid swollen cellulose ([1]; ferulic acid 10 mM): 100% | Relative activity to degrade phosphoric acid swollen cellulose ([1]; ferulic acid 15 mM): 95% | Concentration of glucose generated, Culture solution + Mutant [2]: 11 g/L | Concentration of glucose generated, Celluclast + Mutant [3]: 14 g/L | Concentration of glucose generated, Celluclast + Mutant [4]: 14 g/L | Relative activity [5]: 100% | Concentration of glucose generated, Culture solution + Mutant [6]: 13 g/L | Concentration of glucose generated, Celluclast + Mutant [7]: 16 g/L | Concentration of glucose generated, Culture solution + Mutant [8]: 11 g/L | Relative activity to degrade phosphoric acid swollen cellulose ([9]; vanillin 0 mM): 100% | Relative activity to degrade phosphoric acid swollen cellulose ([9]; vanillin 5 mM): 100% | Relative activity to degrade phosphoric acid swollen cellulose ([9]; vanillin 10 mM): 95% | Relative activity to degrade phosphoric acid swollen cellulose ([9]; vanillin 15 mM): 95%
